Assay [1] addresses T1, human IL-11 (human, UniProt P20809 22-199).
T1 sequence: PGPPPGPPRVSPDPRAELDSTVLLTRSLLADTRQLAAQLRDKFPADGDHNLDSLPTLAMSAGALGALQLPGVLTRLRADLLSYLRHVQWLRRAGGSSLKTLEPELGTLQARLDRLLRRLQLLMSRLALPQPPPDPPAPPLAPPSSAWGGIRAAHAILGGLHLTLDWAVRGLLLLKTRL
The assay can be described thus: cell-based or functional assay.

The target of assay [2] is T2, murine IL-11 (mouse, UniProt P47873 22-199).
T2 sequence: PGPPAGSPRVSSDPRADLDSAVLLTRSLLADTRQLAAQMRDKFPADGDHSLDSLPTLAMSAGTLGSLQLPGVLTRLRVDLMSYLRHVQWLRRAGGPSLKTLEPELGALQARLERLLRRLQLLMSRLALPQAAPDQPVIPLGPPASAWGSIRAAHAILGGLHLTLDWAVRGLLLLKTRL
The assay is described as follows: cell-based or functional assay.

In assay [3] the target is T1, human IL-11. The assay is described as follows: SPR, IgG captured via anti-human Fc, IL-11 as analyte. The method, then: (§1) Antibody binding affinity to hIL-11 (Invigate, Germany, e.g., lot #C121021-19) and mIL-11 (Invigate, Germany, e.g., lot #C210819-09) was detected using Biacore 8K. Each antibody was captured on an anti-human IgG Fc antibody immobilized CM5 sensor chip (GE). hIL-11 and mIL-11 at different concentrations (0, 5, 15.82 and 50 nM) in 1×HBS-EP+ (pH 7.4) (GE healthcare) were injected over the sensor chip at a flow rate of 30 μL/min for an association phase of 120 s, followed by 200 s dissociation phase. The chip was then regenerated by 10 mM Glycine, pH 1.5 after each binding cycle.
(§2) The sensorgrams of blank surface and buffer channel were subtracted from the test sensorgrams. The experimental data was fitted by 1:1 model using Langmiur analysis. Molecular weight of 19.3 kDa was used to calculate the molar concentration of human and mouse IL-11.
(§3) 16 AB were produced as described in Example 21 and binding of purified AB to human and mouse IL-11 was analyzed using SPR as described in Example 21.

Assay [4] concerns the target T2, murine IL-11. Described as above. The method, then: as §1, §2, §3

B1: TPP-31319 (antibody, IgG4, V domains shown)
VH: QVQLVESGGGVVQPGRSLRLSCAASGFTFSHYDMHWLRQAPGKGLEWVAVISYEGSNKFYADSVKGRFTISRDNSKNTLYLQMNSLRAEDTAVYYCARTPGSHFDYWGQGTLVTVSS
VL: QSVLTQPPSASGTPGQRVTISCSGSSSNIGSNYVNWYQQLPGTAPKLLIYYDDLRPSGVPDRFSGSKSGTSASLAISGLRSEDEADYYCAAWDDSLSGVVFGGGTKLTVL
notes: hIgG4 SPLE, lambda; FB - 1, back mutation VH-V37L
With B1, the results for the “IC50, RGA” value in assay [1] and in assay [2] were 2.3 nM and 1.6 nM, respectively. Further, the values for the Kd in assay [3] and in assay [4] were 0.83 nM and 0.59 nM, respectively.

B2: TPP-31316 (antibody, IgG4, V domains shown)
VH: QVQLVESGGGLVQPGRSLRLSCAASGFTFSHYDMHWVRQAPGKGLEWVAVISYEGSNKFYADSVKGRFTISRDNSKNTLYLQMNSLRAEDTAVYYCARTPGSHFDYWGQGTLVTVSS
VL: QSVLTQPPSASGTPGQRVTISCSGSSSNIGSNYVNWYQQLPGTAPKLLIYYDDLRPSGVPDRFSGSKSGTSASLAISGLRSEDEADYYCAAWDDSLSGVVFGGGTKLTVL
notes: hIgG4 SPLE, lambda; FB - 1, back mutation VH-V11L
In the case of B2, the “IC50, RGA” value in assay [1] is 3.2 nM; in assay [2] it was 1.1 nM. Also, the equilibrium dissociation constant (Kd) in assay [3] was 0.85 nM; in assay [4], 0.62 nM.

B3: TPP-31315 (antibody, IgG4, V domains shown)
VH: QVQLLESGGGVVQPGRSLRLSCAASGFTFSHYDMHWVRQAPGKGLEWVAVISYEGSNKFYADSVKGRFTISRDNSKNTLYLQMNSLRAEDTAVYYCARTPGSHFDYWGQGTLVTVSS
VL: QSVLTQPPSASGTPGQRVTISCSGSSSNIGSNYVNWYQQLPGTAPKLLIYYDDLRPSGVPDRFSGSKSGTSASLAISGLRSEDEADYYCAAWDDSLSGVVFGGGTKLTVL
notes: hIgG4 SPLE, lambda; FB - 1, back mutation VH-V5L
Turning to B3, the “IC50, RGA” value in assay [1] came to 2.9 nM; in assay [2], 1.7 nM. Further, the figures for the equilibrium dissociation constant (Kd) in assay [3] and in assay [4] were 0.87 nM and 0.65 nM, respectively.

B4: TPP-31327 (antibody, IgG4, V domains shown)
VH: QVQLVESGGGVVQPGRSLRLSCAASGFTFSHYDMHWVRQAPGKGLEWVAVISYEGSNKFYADSVKGRFTISRDNSKNTLYLQMNSLRAEDTAVYYCARTPGSHFDYWGQGTLVTVSS
VL: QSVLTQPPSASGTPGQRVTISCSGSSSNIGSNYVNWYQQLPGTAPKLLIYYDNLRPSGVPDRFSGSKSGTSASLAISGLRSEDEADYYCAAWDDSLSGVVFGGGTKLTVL
notes: hIgG4 SPLE, lambda; FB + 1, plus VL-D53N
Take B4: the “IC50, RGA” value is 3.1 nM in assay [1] and 2.1 nM in assay [2]. The Kd in assay [3] stood at 1 nM; in assay [4] it was 0.85 nM.

B5: TPP-31324 (antibody, IgG4, V domains shown)
VH: QVQLVESGGGVVQPGRSLRLSCAASGFTFSHYDMHWVRQAPGKGLEWVAVISYEGSNKFYADSVKGRFTISRDNSKNTLYLQMNSLRAEDTAVYYCARTPGSHFDYWGQGTLVTVSS
VL: QSVLTQPPSASGTPGQRVTISCSGSSSNIGSNYVNWYQQLPGTAPKLLIYYDDLLPSGVPDRFSGSKSGTSASLAISGLRSEDEADYYCAAWDDSLSGVVFGGGTKLTVL
notes: hIgG4 SPLE, lambda; FB - 1, back mutation VL-R55L
For the molecule B5, the “IC50, RGA” value amounted to 2.9 nM in assay [1] and 1 nM in assay [2]. The results for the equilibrium dissociation constant (Kd) in assay [3] and in assay [4] were 0.79 nM and 0.5 nM, respectively.

B6: TPP-31328 (antibody, IgG4, V domains shown)
VH: QVQLVESGGGVVQPGRSLRLSCAASGFTFSHYDMHWVRQAPGKGLEWVAVISYEGSNKYYADSVKGRFTISRDNSKNTLYLQMNSLRAEDTAVYYCARTPGSHFDYWGQGTLVTVSS
VL: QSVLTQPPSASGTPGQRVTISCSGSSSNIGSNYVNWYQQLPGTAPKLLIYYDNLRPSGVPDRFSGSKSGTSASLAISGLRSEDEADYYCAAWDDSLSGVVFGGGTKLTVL
notes: hIgG4 SPLE, lambda; FB + 2, plus VH-F59Y & VL-D53N
In the case of B6, the figures for the “IC50, RGA” value in assay [1] and in assay [2] were 7.9 nM and 2.1 nM, respectively. Further, the Kd in assay [3] and in assay [4] was 1.8 nM throughout.

B7: TPP-31322 (antibody, IgG4, V domains shown)
VH: QVQLVESGGGVVQPGRSLRLSCAASGFTFSHYDMHWVRQAPGKGLEWVAVISYEGSNKFYADSVKGRFTISRDNSKNTLYLQMNSLRAEDTAVYYCARTPGSHFDYWGQGTLVTVSS
VL: QSVLTQPPSASGTPGQRVTISCSGSSSNIGNNYVNWYQQLPGTAPKLLIYYDDLRPSGVPDRFSGSKSGTSASLAISGLRSEDEADYYCAAWDDSLSGVVFGGGTKLTVL
notes: hIgG4 SPLE, lambda; FB - 1, back mutation VL-S31N
B7: the “IC50, RGA” value in assay [1] was found to be 1.7 nM; in assay [2], 1.4 nM. In addition, the equilibrium dissociation constant (Kd) came out at 0.81 nM in assay [3] and 0.69 nM in assay [4].

B8: TPP-31323 (antibody, IgG4, V domains shown)
VH: QVQLVESGGGVVQPGRSLRLSCAASGFTFSHYDMHWVRQAPGKGLEWVAVISYEGSNKFYADSVKGRFTISRDNSKNTLYLQMNSLRAEDTAVYYCARTPGSHFDYWGQGTLVTVSS
VL: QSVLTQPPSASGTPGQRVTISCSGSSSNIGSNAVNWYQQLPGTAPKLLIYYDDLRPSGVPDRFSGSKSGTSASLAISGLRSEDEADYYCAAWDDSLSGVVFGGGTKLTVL
notes: hIgG4 SPLE, lambda; FB - 1, back mutation VL-Y33A
In the case of B8, the “IC50, RGA” value in assay [1] turned out to be 7.1 nM; in assay [2], 3.5 nM. Moreover, the Kd in assay [3] was 2.4 nM; in assay [4], 1.7 nM.

B9: TPP-31317 (antibody, IgG4, V domains shown)
VH: QVQLVESGGGVVQPGGSLRLSCAASGFTFSHYDMHWVRQAPGKGLEWVAVISYEGSNKFYADSVKGRFTISRDNSKNTLYLQMNSLRAEDTAVYYCARTPGSHFDYWGQGTLVTVSS
VL: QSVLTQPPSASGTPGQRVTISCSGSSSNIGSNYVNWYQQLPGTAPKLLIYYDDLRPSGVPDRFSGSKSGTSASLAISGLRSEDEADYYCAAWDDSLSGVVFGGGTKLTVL
notes: hIgG4 SPLE, lambda; FB - 1, back mutation VH-R16G
As for B9, the “IC50, RGA” value was found to be 2.9 nM in assay [1] and 1.5 nM in assay [2]. In addition, the values for the Kd in assay [3] and in assay [4] were 0.83 nM and 0.58 nM, respectively.

Source of the values: US20240317847A1 (Bayer, published 2024).
